Laboratory results from US20230340151A1 (Pfizer, published 2023).
Numbering of substitutions follows the chain as printed.

How the values were obtained:
[1] = target: T1, Cynomolgus GUCY2C-ECD Cleaved (cynomolgus, UniProt P25092 24-430 (human entry)); assay: SPR, GUCY2c directly immobilized, 37 C
T1 construct: also called CyGUCY2C
T1 chain: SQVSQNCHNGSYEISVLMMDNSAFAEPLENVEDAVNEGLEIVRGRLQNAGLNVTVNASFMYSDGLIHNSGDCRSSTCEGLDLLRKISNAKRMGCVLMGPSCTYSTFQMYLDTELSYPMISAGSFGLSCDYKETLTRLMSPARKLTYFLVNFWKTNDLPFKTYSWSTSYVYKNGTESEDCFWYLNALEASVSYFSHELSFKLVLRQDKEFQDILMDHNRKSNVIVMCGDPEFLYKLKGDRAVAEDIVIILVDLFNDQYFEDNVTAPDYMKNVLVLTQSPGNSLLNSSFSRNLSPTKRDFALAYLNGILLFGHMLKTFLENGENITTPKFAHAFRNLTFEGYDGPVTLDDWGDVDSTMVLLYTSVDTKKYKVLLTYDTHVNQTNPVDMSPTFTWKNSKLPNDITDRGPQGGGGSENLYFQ

[2] = target: T2, Human GUCY2C full length (SEQ ID NO: 224), recombinant protein (human, UniProt P25092 24-430, limits assumed); assay: SPR, anti-human IgG capture, 25 C
T2 construct: also called huGUCY2C; biotinylated human GUCY2c
T2 sequence (P25092 24-430 F281L limits assumed): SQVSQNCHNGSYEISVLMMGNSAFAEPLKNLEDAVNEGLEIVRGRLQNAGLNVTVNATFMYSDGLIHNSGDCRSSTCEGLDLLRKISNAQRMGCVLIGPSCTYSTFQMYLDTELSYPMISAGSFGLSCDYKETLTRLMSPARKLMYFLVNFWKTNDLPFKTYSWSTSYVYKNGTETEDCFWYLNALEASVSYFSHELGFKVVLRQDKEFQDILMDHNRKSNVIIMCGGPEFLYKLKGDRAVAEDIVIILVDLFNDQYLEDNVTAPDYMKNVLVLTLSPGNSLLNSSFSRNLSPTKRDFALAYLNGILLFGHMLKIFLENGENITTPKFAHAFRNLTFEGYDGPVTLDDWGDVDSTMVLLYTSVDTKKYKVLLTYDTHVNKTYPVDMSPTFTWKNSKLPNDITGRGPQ

[3] = target: T3, Cynomolgus CD3 epsilon-delta (cynomolgus); assay: SPR, printed anti-His capture, 25 C (Table 33D)
T3 chain: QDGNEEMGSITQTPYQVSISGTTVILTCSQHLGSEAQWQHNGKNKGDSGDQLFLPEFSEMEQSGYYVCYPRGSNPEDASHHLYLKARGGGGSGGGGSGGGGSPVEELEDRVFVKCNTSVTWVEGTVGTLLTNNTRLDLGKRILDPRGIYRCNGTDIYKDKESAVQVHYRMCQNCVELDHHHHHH

[4] = target: T4, Murine GUCY2C-ECD cleaved (mouse, UniProt Q3UWA6 20-433); assay: SPR, anti-human IgG capture, 25 C
T4 sequence: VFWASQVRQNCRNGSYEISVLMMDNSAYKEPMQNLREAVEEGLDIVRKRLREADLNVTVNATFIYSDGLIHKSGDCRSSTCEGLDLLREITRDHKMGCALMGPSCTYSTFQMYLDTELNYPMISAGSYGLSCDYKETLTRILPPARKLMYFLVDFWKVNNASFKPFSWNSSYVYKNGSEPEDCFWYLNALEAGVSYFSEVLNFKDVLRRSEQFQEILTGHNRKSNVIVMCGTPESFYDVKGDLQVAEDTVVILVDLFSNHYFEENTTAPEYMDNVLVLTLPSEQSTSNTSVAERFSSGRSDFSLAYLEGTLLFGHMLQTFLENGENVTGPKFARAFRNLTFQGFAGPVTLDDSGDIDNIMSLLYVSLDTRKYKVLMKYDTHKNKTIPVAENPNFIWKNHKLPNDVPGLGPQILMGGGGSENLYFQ

[5] = target: T2, Human GUCY2C full length (SEQ ID NO: …); assay: SPR, GUCY2c directly immobilized, 37 C
[6] = target: T5, Human CD3 epsilon-delta (human); assay: SPR, CD3 captured by anti-His, printed 25 C (Table 33C)
T5 construct: Single-chain epsilon-linker-delta with His6; also called huCD3
T5 chain: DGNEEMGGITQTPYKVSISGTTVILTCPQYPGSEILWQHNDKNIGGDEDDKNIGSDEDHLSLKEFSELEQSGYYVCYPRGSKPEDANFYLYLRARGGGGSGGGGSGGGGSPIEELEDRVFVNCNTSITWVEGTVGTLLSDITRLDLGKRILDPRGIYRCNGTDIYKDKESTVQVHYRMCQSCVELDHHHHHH

[7] = target: T1, Cynomolgus GUCY2C-ECD Cleaved; assay: SPR, GUCY2c directly immobilized, 25 C
[8] = target: T4, Murine GUCY2C-ECD cleaved; assay: SPR, GUCY2c directly immobilized, 37 C
[9] = target: T4, Murine GUCY2C-ECD cleaved; assay: SPR, GUCY2c directly immobilized, 25 C
[10] = target: T3, Cynomolgus CD3 epsilon-delta; assay: SPR, CD3 captured by anti-His, printed 25 C (Table 33F)
[11] = target: T5, Human CD3 epsilon-delta; assay: SPR, CD3 captured by anti-His, 25 C
[12] = target: T1, Cynomolgus GUCY2C-ECD Cleaved; assay: SPR, anti-human IgG capture, 25 C
[13] = target: T6, Purified human GUCY2c ECD (recombinant, construct not stated) (human, UniProt P25092 24-430); assay: direct ELISA, coated GUCY2c ECD
T6 construct: also called recombinant human GUCY2c; recombinant GUCY2c protein
T6 sequence (P25092 24-430 limits assumed): as the sequence (P25092 24-430 F281L limits assumed) above, with L258F counted along it

[14] = target: Human GUCY2c on tumor cells (T84, HT55) (human, UniProt P25092 24-1073); assay: cell-based or functional assay
Sequence of Human GUCY2c on tumor cells (T84, HT55) (P25092 24-1073 limits assumed): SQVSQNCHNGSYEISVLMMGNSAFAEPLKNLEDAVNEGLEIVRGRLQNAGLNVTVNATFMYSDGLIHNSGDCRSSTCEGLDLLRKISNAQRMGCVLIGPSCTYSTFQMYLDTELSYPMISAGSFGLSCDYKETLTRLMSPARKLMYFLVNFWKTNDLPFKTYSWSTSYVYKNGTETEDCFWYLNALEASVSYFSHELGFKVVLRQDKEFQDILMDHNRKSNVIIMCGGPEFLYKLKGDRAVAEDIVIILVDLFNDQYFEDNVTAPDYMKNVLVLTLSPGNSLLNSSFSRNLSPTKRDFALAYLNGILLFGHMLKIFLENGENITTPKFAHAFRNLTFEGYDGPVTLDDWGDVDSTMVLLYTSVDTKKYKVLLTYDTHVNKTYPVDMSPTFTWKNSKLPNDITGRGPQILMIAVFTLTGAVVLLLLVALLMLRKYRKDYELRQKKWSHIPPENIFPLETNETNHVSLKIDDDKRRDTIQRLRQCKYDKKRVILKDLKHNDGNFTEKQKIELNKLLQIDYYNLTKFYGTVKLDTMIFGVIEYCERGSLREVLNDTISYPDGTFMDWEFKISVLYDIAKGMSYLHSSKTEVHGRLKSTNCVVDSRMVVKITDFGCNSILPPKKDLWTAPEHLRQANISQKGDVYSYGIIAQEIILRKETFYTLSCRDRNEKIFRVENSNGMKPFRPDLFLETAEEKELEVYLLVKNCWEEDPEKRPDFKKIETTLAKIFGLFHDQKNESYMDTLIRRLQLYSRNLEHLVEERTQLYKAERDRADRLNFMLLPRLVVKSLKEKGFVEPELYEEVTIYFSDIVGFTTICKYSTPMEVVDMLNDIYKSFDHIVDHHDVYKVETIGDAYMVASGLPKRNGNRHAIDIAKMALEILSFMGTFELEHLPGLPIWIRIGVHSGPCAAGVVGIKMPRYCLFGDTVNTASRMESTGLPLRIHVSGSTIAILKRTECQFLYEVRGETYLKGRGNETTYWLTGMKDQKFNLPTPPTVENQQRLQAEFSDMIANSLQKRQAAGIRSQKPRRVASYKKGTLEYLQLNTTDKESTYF

[15] = target: T7, Human GUCY2C ECD-muIgG2a (human); assay: sandwich ELISA: CD3 epsilon-delta coated, GUCY2c ECD-mIgG2a Fc in solution
T7 construct: also called human GUCY2c ECD-mouse IgG2a Fc fusion protein; huGUCY2c-mIgG2a
T7 sequence (chain, as listed by the source limits assumed): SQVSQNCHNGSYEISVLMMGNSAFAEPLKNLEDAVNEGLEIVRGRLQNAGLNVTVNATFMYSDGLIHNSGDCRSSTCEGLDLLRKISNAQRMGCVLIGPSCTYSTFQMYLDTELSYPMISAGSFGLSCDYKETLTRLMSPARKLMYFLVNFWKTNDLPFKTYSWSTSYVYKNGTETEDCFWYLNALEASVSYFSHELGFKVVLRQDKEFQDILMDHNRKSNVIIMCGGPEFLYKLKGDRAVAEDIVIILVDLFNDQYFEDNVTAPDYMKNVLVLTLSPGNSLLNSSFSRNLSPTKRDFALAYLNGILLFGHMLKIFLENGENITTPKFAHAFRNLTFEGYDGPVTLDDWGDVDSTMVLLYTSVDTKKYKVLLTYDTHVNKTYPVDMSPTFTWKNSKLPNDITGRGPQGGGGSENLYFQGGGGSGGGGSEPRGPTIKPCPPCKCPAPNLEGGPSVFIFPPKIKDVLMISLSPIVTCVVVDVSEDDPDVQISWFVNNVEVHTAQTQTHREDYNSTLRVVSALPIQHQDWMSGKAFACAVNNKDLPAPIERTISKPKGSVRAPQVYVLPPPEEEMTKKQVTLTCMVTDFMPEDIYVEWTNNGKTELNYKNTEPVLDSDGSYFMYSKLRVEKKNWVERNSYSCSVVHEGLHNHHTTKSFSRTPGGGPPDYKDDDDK

[16] = target: T2, Human GUCY2C full length (SEQ ID NO: …); assay: SPR, GUCY2c directly immobilized, 25 C
[17] = target: T3, Cynomolgus CD3 epsilon-delta; assay: SPR, CD3 captured by anti-His, 25 C
[18] = target: T5, Human CD3 epsilon-delta; assay: direct ELISA, coated CD3 epsilon-delta
[19] = target: T5, Human CD3 epsilon-delta; assay: SPR, anti-human IgG capture, 25 C
[20] = target: T2, Human GUCY2C full length (SEQ ID NO: …); assay: SPR, IgG captured by anti-human Fc
[21] = target: T6, Purified human GUCY2c ECD (recombinant, …); assay: ELISA; column 'Direct huGUCY2C binding (nM)'

B1: GUCY2C-0098 (bispecific antibody)
chain 1: DIVLTQSPASLAVSLGQRATISCRASESVDYYGTSLMQWYQQKPGQPPKLLIYAASNVESGVPARFSGSGSGTDFSLNIHPVEEDDIAMYFCQQTRKVYTFGGGTKLEIKGGGSGGGGEVQLVESGGGLVQPGGSLRLSCAASGFTFSDYYMTWVRQAPGKGLEWVAFIRNRARGYTSDHNPSVKGRFTISRDNAKNSLYLQMNSLRAEDTAVYYCARDRPSYYVLDYWGQGTTVTVSSGCPPCPAPEAAGAPSVFLFPPKPKDTLMISRTPEVTCVVVDVSHEDPEVKFNWYVDGVEVHNAKTKPREEQYNSTYRVVSVLTVLHQDWLNGKEYKCKVSNKALPAPIEKTISKAKGQPREPQVCTLPPSREEMTKNQVSLWCLVKGFYPSDIAVEWESNGQPENNYKTTPPVLDSDGSFFLYSKLTVDKSRWQQGNVFSCSVMHEALHNHYTQKSLSLSPG
chain 2: DIVMTQSPDSLAVSLGERATINCKSSQSLFNVRSRKNYLAWYQQKPGQPPKLLISWASTRESGVPDRFSGSGSGTDFTLTISSLQAEDVAVYYCKQSYDLFTFGSGTKLEIKGGGSGGGGQVQLQQPGAELVKPGASVKLSCKASGYTFTSYWMHWVKQRPGQGLEWIGEIKPSNGLTNYIEKFKNKATLTVDKSATTAYMQLSSLTAEDSAVYYCTRTITTTEGYWFFDVWGAGTTVTVSSGCPPCPAPEAAGAPSVFLFPPKPKDTLMISRTPEVTCVVVDVSHEDPEVKFNWYVDGVEVHNAKTKPREEQYNSTYRVVSVLTVLHQDWLNGKEYKCKVSNKALPAPIEKTISKAKGQPREPQVYTLPPCREEMTKNQVSLSCAVKGFYPSDIAVEWESNGQPENNYKTTPPVLDSDGSFFLVSKLTVDKSRWQQGNVFSCSVMHEALHNHYTQKSLSLSPG
notes: chimeric CD3-GUCY2c diabody-Fc, CD3-0004
Kd [1]: 8.52 nM | koff [1]: 0.00264 s⁻¹ | kon [1]: 310000 M⁻¹ s⁻¹ | Kd [2]: 4.96 nM | koff [2]: 0.000675 s⁻¹ | kon [2]: 136000 M⁻¹ s⁻¹ | Kd [3]: 3.56 nM | koff [3]: 0.00101 s⁻¹ | kon [3]: 284000 M⁻¹ s⁻¹ | Kd [4]: 107 nM | koff [4]: 0.00402 s⁻¹ | kon [4]: 37500 M⁻¹ s⁻¹ | Kd [5]: 15 nM | koff [5]: 0.00377 s⁻¹ | kon [5]: 251000 M⁻¹ s⁻¹ | Kd [6]: 19.9 nM | koff [6]: 0.0505 s⁻¹ | kon [6]: 2.51e+06 M⁻¹ s⁻¹ | Kd [7]: 2.8 nM | koff [7]: 0.000577 s⁻¹ | kon [7]: 206000 M⁻¹ s⁻¹ | Kd [8]: 103 nM | koff [8]: 0.0201 s⁻¹ | kon [8]: 196000 M⁻¹ s⁻¹ | Kd [9]: 20 nM | koff [9]: 0.00268 s⁻¹ | kon [9]: 134000 M⁻¹ s⁻¹ | Kd [10]: 19.3 nM | koff [10]: 0.0442 s⁻¹ | kon [10]: 2.28e+06 M⁻¹ s⁻¹ | Kd [11]: 4.75 nM | koff [11]: 0.00524 s⁻¹ | kon [11]: 1.1e+06 M⁻¹ s⁻¹ | Kd [12]: 3.93 nM | koff [12]: 0.000524 s⁻¹ | kon [12]: 134000 M⁻¹ s⁻¹ | EC50 [13]: 60.2 nM | T84 tumor cell EC50 (T cell cytotoxicity, E:T 10:1) [14]: 0.41 nM | EC50 [15]: 186 nM | Kd [16]: 7.19 nM | koff [16]: 0.00104 s⁻¹ | kon [16]: 145000 M⁻¹ s⁻¹ | Kd [17]: 4.94 nM | koff [17]: 0.00478 s⁻¹ | kon [17]: 969000 M⁻¹ s⁻¹ | EC50 [18]: 7.24 nM | Kd [19]: 3.26 nM | koff [19]: 0.000967 s⁻¹ | kon [19]: 297000 M⁻¹ s⁻¹

B2: GUCY2C-0212 (antibody, human IgG1, V domains shown)
VH: EVQLVESGGGLVQPGGSLRLSCAASGYTFTSYWMHWVRQAPGKGLEWIGEIKPSNGLTNYIEKFKNRFTISRDNAKNSLYLQMNSLRAEDTAVYYCARTITTTEGYWFFDVWGQGTLVTVSS
VL: DIQLTQSPSSLSASVGDRVTITCRASESVDYYGTSLMQWYQQKPGKAPKLLIYAASNVESGVPSRFSGSGSGTDFTLTISSLQPEDFATYYCQQTRKVYTFGQGTKLEIK
Kd [20]: 26 nM | EC50 [21]: 0.769 nM

B3: GUCY2C-0486 (antibody, human IgG1, kappa, V domains shown)
VH: B2 VH with Y60V, I61H, R72V, N74K, L79A, A97T
VL: DIQLTQSPSSLSASVGDRVTITCRASESVDYYGSSLLQWYQQKPGKAPKLLIYAASKLASGVPSRFSGSGSGTDFTLTISSLQPEDFATYYCQQTRKAYTFGQGTKLEIKR
Kd [20]: 5.47 nM

B4: GUCY2C-0210 (antibody, human IgG1, V domains shown)
VH: B2 VH with G49A
VL: B2 VL
Kd [20]: 85.7 nM | EC50 [21]: 8.96 nM

B5: GUCY2C-0241 (antibody, human IgG1, kappa, V domains shown)
VH: B2 VH with R72V, N74K, L79A, A97T
VL: B3 VL with S34T, L37M, K57N, L58V, A59E, A98V
notes: humanized IgG1; used as scFv on phage in the binary substitution library
Kd [20]: 9.81 nM | EC50 [21]: 0.161 nM
